Experimental findings from US20070123452A1, “Method of selecting novel immunosuppressant” (Astellas Pharma Inc., priority 2002, published 2007) are described below.

In test [1] the test system is IL-2 transcription (human IL-2 promoter). The experiment in a line: IL-2 reporter gene assay in Jurkat cells. It is filed as cell-based. The procedure: To 1 μg of the plasmid pGL3 IL2 Pro43, which has a human IL-2 promoter sequence (the −674 to +54 region in the vicinity of the transcription initiation site) upstream of the firefly luciferase gene, and 6 μg of pRL-TK (Promega), the plasmids for the expression of wild-type HDAC4 or each of HDAC4 dominant negative variants (H802K, H803L, H863L) prepared in Example 3 was mixed in various ratios (1, 3 and 10 μg), and 1×10^7 Jurkat cells (ATCC, TIB-152) were transformed by the electroporation method (BIO-RAD, Gene Pulser II, voltage 300 V, charge 975 μF, 400 μL).
After transformation, 2.5 mL of RPMI 1640 containing 10% FBS (MOREGATE) (10% FBS RPMI 1640) was added, and this mixture was dispensed to a 96-well white plate in a ratio of 50 μL/well. After cultivation under conditions of 37° C., 5% CO2 and saturated humidity for 10 hours, a liquid mixture of Phorbol 12-Myristate 13-Acetate (PMA, SIGMA), Ionomycin (SIGMA) and Anti-CD28 antibody (Pharmingen) in 10% FBS RPMI 1640 was added at 50 μL/well (the final concentrations were 50 ng/mL, 1 μg/mL and 75 ng/mL, respectively) to stimulate the Jurkat cells. After cultivation under conditions of 37° C., 5% CO2 and saturated humidity for 12 hours, luciferase activity in the cells was measured according to the manual of the Bright-Glo Luciferase Assay System (Promega) using a multi-label counter (1420 MULTILABEL COUNTER ARVO SX, WALLAC).
1×10^7 Jurkat cells (ATCC, TIB-152) were transformed with 10 μg of a plasmid for the expression of various HDACs or HDAC variants by the electroporation method (BIO-RAD, Gene Pulser II, voltage 300 V, charge 975 μF, 400 μL). […] After cultivation under conditions of 37° C., 5% CO2 and saturated humidity for 12 hours, luciferase activity in cells were measured according to the manual of the Bright-Glo Luciferase Assay System (Promega), and IL-2 transcriptional activity was measured using a multi-label counter (1420 MULTILABEL COUNTER ARVO SX, WALLAC).
A mixture of four kinds of HDAC4-targeted siRNA, i.e., siGENE HDAC4 SMARTpool (manufactured by Dharmacon Inc., marketed by B-Bridge international Inc., code number M-003497-00-05), or Non-specific Control Duplex IX (47% GC content) (manufactured by Dharmacon Inc., marketed by B-Bride international Inc., code number D-001206-09-20), and pGL3 IL2 Pro43 were transfected to Jurkat cells by the electroporation method using the same conditions as those mentioned above, and IL-2 transcriptional activity was measured. Likewise, siGENE HDAC4 SMARTpool or Non-specific Control Duplex IX, and pGL3-HSI-IE Pro were transfected to HEL cells, and GATA-1 transcriptional activity was measured. […]

The test system of test [2] is N-CoR and HDAC3. The experiment in a line: Complex forming ability, anti-Flag purification and Western blotting. It is filed as binding, human. The settings on record: expressed in PEAK Rapid cells; compared to wild-type HDAC4. (In general: Immunoblotting shows a protein as a band on a membrane.)

B1: HDAC4 dominant negative variant (H863L): HDAC4 variant with H863L mutation, amino acid sequence SEQ ID NO:6, expressed from plasmid (protein, listed as Homo sapiens)
chain: MSSQSHPDGLSGRDQPVELLNPARVNHMPSTVDVATALPLQVAPSAVPMDLRLDHQFSLPVAEPALREQQLQQELLALKQKQQIQRQILIAEFQRQHEQLSRQHEAQLHEHIKQQQEMLAMKHQQELLEHQRKLERHRQEQELEKQHREQKLQQLKNKEKGKESAVASTEVKMKLQEFVLNKKKALAHRNLNHCISSDPRYWYGKTQHSSLDQSSPPQSGVSTSYNHPVLGMYDAKDDFPLRKTASEPNLKLRSRLKQKVAERRSSPLLRRKDGPVVTALKKRPLDVTDSACSSAPGSGPSSPNNSSGSVSAENGIAPAVPSIPAETSLAHRLVAREGSAAPLPLYTSPSLPNITLGLPATGPSAGTAGQQDTERLTLPALQQRLSLFPGTHLTPYLSTSPLERDGGAAHSPLLQHMVLLEQPPAQAPLVTGLGALPLHAQSLVGADRVSPSIHKLRQHRPLGRTQSAPLPQNAQALQHLVIQQQHQQFLEKHKQQFQQQQLQMNKIIPKPSEPARQPESHPEETEEELREHQALLDEPYLDRLPGQKEAHAQAGVQVKQEPIESDEEEAEPPREVEPGQRQPSEQELLFRQQALLLEQQRIHQLRNYQASMEAAGIPVSFGGHRPLSRAQSSPASATFPVSVQEPPTKPRFTTGLVYDTLMLKHQCTCGSSSSHPEHAGRIQSIWSRLQETGLRGKCECIRGRKATLEELQTVHSEAHTLLYGTNPLNRQKLDSKKLLGSLASVFVRLPCGGVGVDSDTIWNEVHSAGAARLAVGCVVELVFKVATGELKNGFAVVRPPGHHAEESTPMGFCYFNSVAVAAKLLQQRLSVSKILIVDWDVHHGNGTQQAFYSDPSVLYMSLLRYDDGNFFPGSGAPDEVGTGPGVGFNVNMAFTGGLDPPMGDAEYLAAFRTVVMPIASEFAPDVVLVSSGFDAVEGHPTPLGGYNLSARCFGYLTKQLMGLAGGRIVLALEGGHDLTAICDASEACVSALLGNELDPLPEKVLQQRPNANAVRSMEKVMEIHSKYWRCLQRTTSTAGRSLIEAQTCENEEAETVTAMASLSVGVKPAEKRPDEEPMEEEPPL
modifications: Dominant negative mutant (H863L) of human histone deacetylase-4 (HDAC4) gene
Take B1: the “IL-2 transcriptional activity (luciferase)” value was “IL-2 transcription suppression depending on the expression level” in test [1] (Jurkat cells stimulated with PMA, Ionomycin, Anti-CD28 antibody, expression plasmid 1, 3 and 10 μg); “IL-2 transcription suppression was observed” in test [1] (Jurkat cells, 10 μg expression plasmid, compared with HDAC1 and HDAC3 variants). Besides, in test [2], the “HDAC3 and N-CoR in the crudely purified fraction (complex forming ability)” value is recorded as “contained almost no HDAC3 or N-COR”.
